# Patent US9113649B2, “Food additive comprising an amidase for detoxifying ochratoxin” (DuPont Nutrition Biosciences ApS, priority 2010, dated 2015)
# B1: amidase 2 mat: secreted mature 438 amino acid amidase 2 from A. niger, MW about 47 kDa, N-terminal 42 amino acids cleaved (protein)
# chain: STDEAKVTIIYAGLLIPGDGEPLRNAALVISDKIIAFVGSEADIPKKYLRSTQSTHRVPVLMPGLWDCHMHFGGDDDYYNDYTSGLATHPASSGARLARGCWEALQNGYTSYRDLAGYGCEVAKAINDGTIVGPNVYSSGAALSQTAGHGDIFALPAGEVLGSYGVMNPRPGYWGAGPLCIADGVEEVRRAVRLQIRRGAKVIKVMASGGVMSRDDNPNFAQFSPEELKVIVEEAARQNRIVSAHVHGKAGIMAAIKAGCKSLEHVSYADEEVWELMKEKGILYVATRSVIEIFLASNGEGLVKESWAKLQALADSHLKAYQGAIKAGVTIALGTDTAPGGPTALELQFAVERGGMTPLEAIKAATANAPLSVGPQAPLTGQLREGYEADVIALEENPLEDIKVFQEPKAVTHVWKGGKLFKGPGIGPWGEDARNPFL
# modifications: Aspergillus niger
# notes: secreted mature 438 amino acid amidase 2 from A. niger, MW about 47 kDa, N-terminal 42 amino acids cleaved
# B2: recombinant amidase 2: amidase 2 from transgenic A. niger intracellular preparation, a mixture of intracellular fractions of transformants 3, 4, 7-8, 10-11 and 13-15 (protein)
# chain: MVRRIASATPMVQSPMSPLGTTYCVRPNPVSLNLQRRPLVIASTDEAKVTIIYAGLLIPGDGEPLRNAALVISDKIIAFVGSEADIPKKYLRSTQSTHRVPVLMPGLWDCHMHFGGDDDYYNDYTSGLATHPASSGARLARGCWEALQNGYTSYRDLAGYGCEVAKAINDGTIVGPNVYSSGAALSQTAGHGDIFALPAGEVLGSYGVMNPRPGYWGAGPLCIADGVEEVRRAVRLQIRRGAKVIKVMASGGVMSRDDNPNFAQFSPEELKVIVEEAARQNRIVSAHVHGKAGIMAAIKAGCKSLEHVSYADEEVWELMKEKGILYVATRSVIEIFLASNGEGLVKESWAKLQALADSHLKAYQGAIKAGVTIALGTDTAPGGPTALELQFAVERGGMTPLEAIKAATANAPLSVGPQAPLTGQLREGYEADVIALEENPLEDIKVFQEPKAVTHVWKGGKLFKGPGIGPWGEDARNPFL
# modifications: Aspergillus niger
# B3: amidase 2 sig: full length 480 amino acid A. niger amidase 2 with N-terminal or signal sequence, MW about 51 kDa; intracellular fraction (protein)
# chain: B2 chain
# modifications: Aspergillus niger
# notes: intracellular fraction
# Columns and labels:
# [1] = format: biochemical; conditions: same concentration, optimum conditions, one hour
# Experimental: The enzyme solution of Amidase 2 mat obtained after AEX was tested on ochratoxin B at the same concentration under optimum conditions for one hour. The degrading rate with ochratoxin B was 8% compared to OTA.
# [2] = OTA degradation as a function of amidase 2 mat concentration; format: biochemical
# Experimental: The amidase used was purified from the broth of transformant 13 (438aa protein referred to as amidase 2 mat).
# Ochratoxin A (OTA) degrading activity of amidase 2 mat purified from the fermentation broth of A. niger harboring the amidase 2 gene as a function of its concentration is shown in FIG. 15. It can be seen from FIG. 15 that the degradation of OTA was amidase 2 mat concentration dependent. One can also see that after 30 min with an amidase 2 mat concentration of 160 ng/ml the OTA decreased by 83%. From the linear region of FIG. 15 the calculated specific activity for amidase 2 mat was 900 nanomole OTA hydrolyzed per min per mg protein at pH7.0 and 40° C. at an OTA concentration of 1 μg/ml reaction mixture. The reaction for FIG. 15 was performed in 0.1 Mops-NaOH (pH 7.0) and 40° C. for 30 min before it was stopped by adding equal volume of acetonitrile containing 0.2% acetic acid and analyzed on RP-HPLC on a C18 column as described in the Material and Method section.
# [3] = sensitivity of OTA hydrolysis to CaCl2 and EDTA; format: biochemical
# Experimental: One protease inhibitor cocktail (PIC) tablet (Roche Applied Science, Mannhein, Germany) was dissolved in 1.5 mL. milliQ water to obtain a 7× stock solution. For formamidase inhibition assay, instead of 100 μL milliQ water normally employed, 20 μL of 7×PIC stock solution and 80 μL of milliQ water were mixed with other components listed in formamidase activity assay section. For OTA degrading activity, 35 μL 7×PIC solution were mixed with 210 μL OTA 1 μg/mL and 5 μL enzyme solution. […] For controls, inhibitor solution is replaced either by milliQ water for formamidase activity assay or MES-NaOH pH7 buffer for OTA degrading activity.
# Also it is known that the OTA degrading activity in the Amano™ lipase product is sensitive to EDTA.
# […] The reaction was performed at 37° C. for 30 min and stopped by adding 150 μl acetonitrile containing 0.2% acetic acid. OTA and its product OT-alpha (=ODα) were analyzed on RP-HPLC on C18 column with an injection of 5 μl. Positive control (PC) contained no additives other than the buffer the amidase and OTA. Blank contained only buffer and OTA.
# [4] = degradation of OTA in milk by amidase 2 mat; format: biochemical; conditions: light milk; 47 ppb at start; 0.22 μg protein; 40° C., 2.5 hr
# Experimental: Light milk (1.5% fat, protein 3.4 g, carbohydrate 4.7 g Calcium 120 mg, Phosphorus 95 mg in 100 ml) from Aria Foods Amba (Aarhus, Denmark) 0.15 ml, 3 μl OTA (2.5 μg/ml), 7.5 μl purified amidase 2 mat (from the broth of A. niger harboring the amidase 2 gene) containing 0.22 μg protein were mixed and reacted at 40° C. for 2.5 hr. The OTA decreased from 47 ppb at start to undetectable level (<2 ppb) after 2.5 hr incubation. OTA analysis by HPLC was described in the materials and methods section above.
# [5] = detoxification of OTA in corn flour by amidase 2 mat; format: biochemical; conditions: from 38 ppm, 30° C., 20 hr, pH7.0
# Experimental: (§1) The reaction mixture in 1.5 ml eppendorf tubes (C1-3) comprised 60 mg corn flower, 200 μl Mops-NaOH (0.2 M pH7.0), 40 μl amidase 2 mixture (which was mixture of an equal volume of the broth of A. niger transformant having amdiase 2 gene 3, 4, 7, 8, 10, 11, 13, 14, and 15), 20 μl OTA (0.5 mg/ml). Total volume of the three components was 260 μl; final OTA was 38 μg/ml or 38 ppm (ppm, parts per million). Control: Tubes of Controls (C-4-6) were the same as C1-3 except that the amidase preparation (the broth) was replaced with water.
# (§2) The reaction was performed at 30° C. with skaking for 20 hr before the addition of equal volume of acetonitrile 260 μl containing 0.2% acetic acid to stop the reaction and to extract the OTA. After centrifugation and filter, the filtrate was analyzed on HPLC.
# [6] = detoxification of OTA in corn-soy based feed by amidase 2 mat; format: biochemical; conditions: from 38 ppm, 20 hr incubation
# Experimental: as §1, §2
# The tests of amidase 2 mat with soy-corn based feed (whose composition is given in Table 3) contaminated with OTA was exactly as the test with corn flour, that is, tubes S1-3 (experimental) were with the broth while for tubes S 5-6 (controls) water replaced the broth. After 20 hr incubation, the OTA level was reduced from 38 ppm to 6.6 ppm, a reduction of 6 times or 82%.
# [7] = pH optimum of amidase 2 in degrading OTA; format: biochemical; conditions: 30° C., 60 min; followed by pH 6 and 8; pH 5 and 9
# Experimental: The reaction mixture contained 5 μl amidase 2 mixture (a mixture of the intracellular fractions of transformant 3, 4, 7-8, 10-11 and 13-15) with a protein concentration of 155 μg protein/ml), 0.1 ml 67 mM phosphate buffer (pH3, 4, 5, 6, 7, 8 and 9), 25 μl OTA (1 μg/ml). The reaction was performed at 30° C. for 60 min and stopped by the addition of 0.13 ml acetonitrile containing 0.2% HAC. An injection volume of 10 μl was used for RP-HPLC analysis of remaining OTA after filtering.
# Five microliters of enzyme solution were combined with […] OTA 1 μg/mL diluted in different buffers: 50 mM sodium acetate buffer (pH 4, 4.5, 5 and 5.5); 50 mM MES-NaOH buffer (pH 6, 6.5 and 7); 50 mM Tris-HCl buffer (pH 7.5, 8 and 8.5).
# [8] = heat stability of amidase 2 at 80° C.; format: biochemical; conditions: 5-30 min pre-incubation at 80° C., pH7.0
# Experimental: The pre-incubation mixture in a 1.5 ml ependorpf tube contained 5 μl of the amidase 2 mixture (155 μg protein/ml), and 45 μl 67 mM phosphate buffer pH7.0. The samples were pre-incubated at 80° C. for 0, 5, 10, 15, 20, 25 and 30 min. After cooling to 15° C., 50 μl 67 mM phosphate buffer and 25 μl OTA (1 μg/ml) were added to start the reaction this was incubated at 30° C. for 60 min, the reaction was stopped by the addition of 130 μl acetonitrile containing 0.2% HAC. An injection volume of 10 μl was used for RP-HPLC analysis of remaining OTA after filtering.
# The reaction mixture of 5 μl enzyme plus 45 μl 68 mM sodium phosphate (pH7.0) was incubated at 80° C. for 0-30 min before adding another 50 μl the phosphate buffer and 25 μl 1 μg/ml OTA, and incubated at 30° C. for 60 min. The reaction was stopped by adding 130 μl acetonitrile containing 0.2% acetic acid (v/v). The reaction mixture was filtered and injected (10 μl) for HPLC analysis. Ctrl was control where no amidase was added.
# [9] = pH and temperature stability of amidase 2 at 70° C.; format: biochemical; conditions: between pH 6 and 9; pre-incubated 30 min; stability decreased with the decrease in pH
# Experimental: The reaction mixture contained 5 μl amidase 2 mixture (155 μg protein/ml), 45 μl 67 mM phosphate buffer at either pH3, 4, 5, 6, 7, 8 or 9. The reaction mixes were incubated at 70° C. for 30 min, before 2 μl 0.5 mg/ml OTA in ethanol and 80 μl 0.2M Mops pH 7.0 were added and the samples incubated at 30° C. for 60 min. The reaction was stopped by adding 130 μl acetonitrile containing 0.2% HAC, filtered and analysed by RP-HPLC.
# Further more the recombinant amidase 2 was quite stable at 70° C. between pH 6 and 9. The stability decreased with the decrease in pH (FIG. 13). Activity was assayed at pH 7.0 and 30° C. The pre-incubation mixture contained 5 μl amidase 2 mixture (155 μg protein/ml), 45 μl 67 mM phosphate buffer (pH3, 4, 5, 6, 7, 8 and 9). The samples were pre-incubated at 70° C. for 30 min. After cooling to 30° C., 2 μl 0.5 mg/ml OTA in ethanol and 80 μl 0.2M Mops-NaOH (pH 7.0) were added and the reaction incubated at 30° C. for 60 min. The reaction was stopped by adding 130 μl acetonitrile containing 0.2% HAC, filtered and injected on RP-HPLC with an injection of 5 μl to monitor the remaining OTA.
# [10] = degradation of OTA in corn flour by amidase 2 sig; format: biochemical; conditions: 800 ppb at the start, 3.1 μg protein, 37° C., 22 hr
# Experimental: For corn flour, 50 mg corn flour was added 210 μl water, 8 μl OTA (25 μg/ml) and 20 μl amidase 2 sig (3.1 μg protein), mixed and incubated at 37° C. for 22 hr. The OTA concentration decreased from 800 ppb at the start to 14 ppb at the end. OTA analysis by HPLC is described in the materials and methods section above.
# [11] = degradation of OTA in DDGS by amidase 2 sig; format: biochemical; conditions: DDGS slurry pH 6.7; 800 ppb at start; 3.1 μg protein; 37° C., 22 hr
# Experimental: For DDGS, 1 g was suspended in 10 ml water, pH adjusted to 6.7 with NaOH. To 210 μl of this slurry was added 8 μl OTA (25 μg/ml) and 20 μl amidase 2 sig (3.1 μg protein), mixed and incubated at 37° C. for 22 hr. The OTA concentration decreased from 800 ppb at start to 5 ppb at the end. OTA analysis by HPLC was described in the materials and methods section above.
molecule,measurement,setting,value
B1,degrading rate with ochratoxin B compared to OTA,[1],8%
same,OTA decrease,"[2]; 160 ng/ml amidase 2 mat, 30 min, pH 7.0, 40° C.",83%
same,specific activity,"[2]; pH7.0 and 40° C., OTA 1 μg/ml reaction mixture, calculated from linear region of FIG. 15",900 nanomole OTA hydrolyzed per min per mg protein
same,inhibition of activity in the hydrolysis of OTA,"[3]; 8 mM CaCl2, enzyme purified from the Amano™ lipase product",around 40%
same,inhibition of activity in the hydrolysis of OTA,"[3]; 8 mM CaCl2, enzyme purified from the broth of transgenic A. niger",around 40%
same,inhibition by extra EDTA,[3]; data not shown,inhibited
same,OTA after incubation,[4],< 2 ppb
same,remaining OTA,[5],less than 2 ppb
same,OTA level after incubation,[6],6.6 ppm
B2,pH of highest enzyme activity,[7],7.0 pH
same,activity remained after pre-incubation,[8],more than 80%
same,stability at 70° C.,[9],quite stable
B3,inhibition by CaCl2,"[3]; 8 mM CaCl2, intracellular fraction of transgenic A. niger",not appreciably inhibited
same,inhibition by CaCl2,"[3]; 20 mM CaCl2, 37° C., 30 min, pH7.0",no inhibition
same,inhibition by EDTA,"[3]; 20 mM EDTA, 37° C., 30 min, pH7.0",no inhibition
same,OTA concentration at the end,[10],14 ppb
same,OTA concentration at the end,[11],5 ppb
